From PMC7211764 (Biochemistry, 2019)

Biological target: the molecule itself
Experiment: SEC

B1: A3A H29R (enzyme)
chain: not shown
- stoichiometry N: 2
